The results in this text go back to article PMC13384491.

Assay [1] concerns the target Axonemes purified from sea urchin sperm, used as microtubule tracks (sea urchin). In words: optical trapping; fixed (stationary) trap, high z-force: biotinylated K560 directly on 860-nm streptavidin beads, single motors, surface-immobilized axonemes, 2 mM ATP, 30 mM HEPES, 5 mM MgSO4, 1 mM EGTA, 10% glycerol, pH 7.4 with casein.
The target is the same in assay [2]. In words: optical trapping; fixed (stationary) trap, low z-force: oligo-labeled full-length KIF5B on 510-nm beads through a 2.8 kb DNA handle, single motors, surface-immobilized axonemes, 2 mM ATP, 30 mM HEPES, 5 mM MgSO4, 1 mM EGTA, 10% glycerol, pH 7.4 with casein.

“K560-GFP-SNAP, tail-truncated, constitutively active human kinesin-1 KIF5B (amino acids 1-560) (from UniProt P33176 1-560) (domain or fragment)” registered a stall time before detachment (weighted average of the two decays) in assay [1] of 0.27 s. In the case of “KIF5B-GFP-SNAP, full-length human kinesin-1 KIF5B, oligo-labeled (from UniProt P33176 1-963) (natural protein)”, the stall time before detachment (weighted average of the two decays) in assay [2] is 1.49 s.
